We go through 29 molecules from US20220259593A1, “CONTROL OF MAMMALIAN GENE DOSAGE USING CRISPR” (The Regents of the University of California, priority 2019, published 2022).

Residue numbers refer to the chain shown, from its start.

The data set concerns K562 CRISPRi cells. Put plainly: Constant region variant library pooled growth screen, K562. The format is cell-based, human. In outline:
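Relative activity expresses each targeting sequence:constant region pair's phenotype over that of the unmodified constant region. Pooled growth screen ran in K562 CRISPRi cells in duplicate spinner-flask replicates, with puromycin selection and 4–8 days' growth at >2000× coverage; library paired variants with 36 targeting sequences.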

Where [1] appears, read: sgRNA constant region variant, activity relative to unmodified constant region cr995, mean CRISPRi activity.
[2] abbreviates: sgRNA constant region variants, activity relative to the original, un-modified constant region cr995.

B1: cr519 (nucleic acid)
guide: GTTTAAGAGCTAAGCTGGAAACAGCATAGCAAGGTTAAATAAGGCTAGTCCGTTATCAACTTGAAAAAGTGGCGCCGAGTCGGCGCT
modifications: listed as DNA, chemistry not fully specified
As for B1, the Mean relative activity under setting [1] was determined as 0.01933.

B2: cr964 (nucleic acid)
guide: B1 guide with A31T, G34T, A65G, G74A, C84T
modifications: listed as DNA, chemistry not fully specified
With B2, the Mean relative activity under setting [2] worked out at 1.033.

B3: cr157 (nucleic acid)
guide: B1 guide with G33C, G34T, G74A, C75T, G83A, C84T
modifications: listed as DNA, chemistry not fully specified
Under setting [1], B3 registered a Mean relative activity of 0.01383.

B4: cr413 (nucleic acid)
guide: B1 guide with G33C, G34T, G74A, C75A, G83T, C84T
modifications: listed as DNA, chemistry not fully specified
Take B4: under setting [1], the Mean relative activity was determined as 0.01427.

B5: cr031 (nucleic acid)
guide: B1 guide with T3A, T4A, G34T, G74A, C84T
modifications: listed as DNA, chemistry not fully specified
In turn, B5 had a Mean relative activity under setting [1] of 0.01677.

B6: cr731 (nucleic acid)
guide: B1 guide with C73T, G74A, C84T, G85A
modifications: listed as DNA, chemistry not fully specified
In turn, B6 had a Mean relative activity under setting [1] of 0.01505.

B7: cr834 (nucleic acid)
guide: B1 guide with A65G, G74A, C84T
modifications: listed as DNA, chemistry not fully specified
For the molecule B7, the Mean relative activity under setting [1] worked out at 0.01861.

B8: cr028 (nucleic acid)
guide: B1 guide with T3C, T4C, G34T, G74A, C84T
modifications: listed as DNA, chemistry not fully specified
In turn, B8 returned a Mean relative activity under setting [1] of 0.01375.

B9: cr841 (nucleic acid)
guide: B1 guide with A59C, T70G, G74A, C84T
modifications: listed as DNA, chemistry not fully specified
In turn, B9 registered a Mean relative activity under setting [1] of 0.01636.

B10: cr864 (nucleic acid)
guide: B1 guide with G29A, G34T, A41T, G74A, C84T
modifications: listed as DNA, chemistry not fully specified
As for B10, the Mean relative activity under setting [1] is 0.01678.

B11: cr263 (nucleic acid)
guide: B1 guide with G34T, A66C, G74A, C84T
modifications: listed as DNA, chemistry not fully specified
Regarding B11, the Mean relative activity under setting [2] is 1.033.

B12: cr170 (nucleic acid)
guide: B1 guide with G72A, G74A, C84T, C86T
modifications: listed as DNA, chemistry not fully specified
Under setting [1], B12 returned a Mean relative activity of 0.01501.

B13: cr504 (nucleic acid)
guide: B1 guide with T62G, A67C, G74A, C84T
modifications: listed as DNA, chemistry not fully specified
The molecule B13 returned a Mean relative activity under setting [1] of 0.01685.

B14: cr562 (nucleic acid)
guide: B1 guide with A31G, G33C, G34T, A65G, G74A, C84T
modifications: listed as DNA, chemistry not fully specified
In the case of B14, the Mean relative activity under setting [1] is 0.01393.

B15: cr462 (nucleic acid)
guide: B1 guide with G33A, G34A, G74A, C84T
modifications: listed as DNA, chemistry not fully specified
As to B15, the Mean relative activity under setting [1] amounted to 0.01488.

B16: cr336 (nucleic acid)
guide: B1 guide with G34T, C45G, G48C, C60A, G69T, G74A, G77C, C81G, C84T
modifications: listed as DNA, chemistry not fully specified
B16 registered a Mean relative activity under setting [1] of 0.01616.

B17: cr324 (nucleic acid)
guide: B1 guide with G34T, G43C, C51G, T61C, A68G, G74A, C84T
modifications: listed as DNA, chemistry not fully specified
With B17, under setting [1], the Mean relative activity stood at 0.01711.

B18: cr382 (nucleic acid)
guide: B1 guide with G43C, C51G, G74A, C84T
modifications: listed as DNA, chemistry not fully specified
Turning to B18, the Mean relative activity under setting [1] is on record as 0.01715.

B19: cr963 (nucleic acid)
guide: B1 guide with G34T, G43C, C51G, C76T, G82A
modifications: listed as DNA, chemistry not fully specified
B19 displayed a Mean relative activity under setting [1] of 0.01551.

B20: cr448 (nucleic acid)
guide: B1 guide with G33C, G34T, G44C, C50G, G74A, C84T
modifications: listed as DNA, chemistry not fully specified
Molecule B20 displayed a Mean relative activity under setting [1] of 0.01746.

B21: cr987 (nucleic acid)
guide: B1 guide with G34T, T49G, A65T, G74A, C84T
modifications: listed as DNA, chemistry not fully specified
As for B21, under setting [1], the Mean relative activity was found to be 0.01815.

B22: cr316 (nucleic acid)
guide: B1 guide with G34T, G43T, C51A, G74A, G77A, C81T, C84T
modifications: listed as DNA, chemistry not fully specified
Consider B22, for which the Mean relative activity under setting [1] turned out to be 0.01422.

B23: cr042 (nucleic acid)
guide: B1 guide with T3G, T4G, G34T, G74A, C84T
modifications: listed as DNA, chemistry not fully specified
B23: the Mean relative activity under setting [1] was determined as 0.0164.

B24: cr261 (nucleic acid)
guide: B1 guide with T53G, G74A, C84T
modifications: listed as DNA, chemistry not fully specified
On to B24, for which the Mean relative activity under setting [1] was determined as 0.01441.

B25: cr214 (nucleic acid)
guide: B1 guide with G34T, A65G, G74A, C75A, G83T, C84T
modifications: listed as DNA, chemistry not fully specified
Turning to B25, under setting [2], the Mean relative activity is reported as 1.033.

B26: cr954 (nucleic acid)
guide: B1 guide with C60A, G69T, G74A, C84T
modifications: listed as DNA, chemistry not fully specified
B26 came in with a Mean relative activity under setting [1] of 0.01751.

B27: cr384 (nucleic acid)
guide: B1 guide with G34T, G43A, G44T, C50A, C51T, G74A, C84T
modifications: listed as DNA, chemistry not fully specified
Under setting [1], B27 yielded a Mean relative activity of 0.01438.

B28: cr041 (nucleic acid)
guide: B1 guide with T2C, A5C, G34T, G74A, C84T
modifications: listed as DNA, chemistry not fully specified
B28 yielded a Mean relative activity under setting [1] of 0.01415.

B29: cr541 (nucleic acid)
guide: B1 guide with G34T, G43A, C45G, G48C, C51T, C73T, G74A, C84T, G85A
modifications: listed as DNA, chemistry not fully specified
Molecule B29 returned a Mean relative activity under setting [1] of 0.01856.
